The record followed here is patent US20260166166A1 (CURON BIOPHARMACEUTICAL SHANGHAI, published 2026).

First the molecules themselves.
B1: hz49E10H1H5L6 (antibody, human IgG1, kappa, V domains shown)
VH: DVQLQESGPGLVKPSQTLSLTCTVSGGSISSDYAWNWIRQPPGKGLEWMGYITYSGTTTYNPSLKSRITISRDTSKNQFSLKLSSVTAADTAVYYCARDHYGNYAYFDYWGQGTTVTVSS
VL: DIQMTQSPSSLSASVGDRVTITCRASSSVSFMHWYQQKPGKAPKPWIYASSNLVSGVPSRFSGSGSGTDFTLTISSLQPEDFATYYCQQWSSNPSTFGGGTKVEIKR
notes: also called humanized anti-L1CAM antibody
B2: hz103E9B3H5L5 (antibody, human IgG1, kappa, V domains shown)
VH: EVQLVQSGAEVKKPGASVKVSCKASGYTFTSYTMHWVRQAPGQGLEWMGDINPNYGGTSYNEKFKDRVTMTTDTSTSTAYMELRSLRSDDTAVYYCAREGATGTWYFDVWGQGTTVTVSS
VL: DIQMTQSPSSLSASVGDRVTITCSASSSVSFMFWYQQKPGKAPKPLIYLTSNLASGVPSRFSGSGSGTDFTLTISSLQPEDFATYYCQQWRSNPPTFGGGTKVEIKR
notes: as for B1
B3: hz49E10H1H5L7 (antibody, human IgG1, kappa, V domains shown)
VH: DVQLQESGPGLVKPSQTLSLTCTVSGGSISSDYAWNWIRQPPGKGLEWMGYITYSGTTTYNPSLKSRITISRDTSKNQFSLKLSSVTAADTAVYYCARDHYGNYAYFDYWGQGTTVTVSS
VL: QIQMTQSPSSLSASVGDRVTITCRASSSVSFMHWYQQKPGKAPKPWIYASSNLVSGVPSRFSGSGSGTDYTLTISSLQPEDFATYYCQQWSSNPSTFGGGTKVEIKR
notes: as for B1
B4: hz103E9B3H6L5 (antibody, human IgG1, kappa, V domains shown)
VH: EVQLVQSGAEVKKPGASVKVSCKASGYTFTSYTMHWVRQAPGQGLEWMGDINPNYGGTSYNEKFKDRATMTTDTSTSTAYMELRSLRSDDTAVYYCAREGATGTWYFDVWGQGTTVTVSS
VL: DIQMTQSPSSLSASVGDRVTITCSASSSVSFMFWYQQKPGKAPKPLIYLTSNLASGVPSRFSGSGSGTDFTLTISSLQPEDFATYYCQQWRSNPPTFGGGTKVEIKR
notes: as for B1
B5: hz26A12C1H4L3 (antibody, human IgG1, kappa, V domains shown)
VH: QVQLVQSGAEVKKPGSSVKVSCKASGYTFTNYWIQWVRQAPGQGLEWIGYINPSTYYSDYNQKFQGRVTLTADKSTSTAYMELSSLRSEDTAVYYCARRQFGLPLFDYWGQGTTVTVSS
VL: DIQMTQSPSSLSASVGDRVTITCRASQDVGTAVAWYQQKPGKVPKLLIYWASTLHSGVPSRFSGSGSGTDFTLTISSLQPEDVATYFCQQYSNYPLTFGGGTKVEIKR
notes: as for B1
B6: hz46F1D5H4L3 (antibody, human IgG1, kappa, V domains shown)
VH: QVQLVQSGAEVKKPGSSVKVSCKASGYTFTRYWIQWVRQAPGQGLEWMGYINPSTGYTDYNQKFQGRVTITADKSTSTAYMELSSLRSEDTAVYYCARRHLGLPLFDYWGQGTTVTVSS
VL: DIQMTQSPSSVSASVGDRVTITCRASQDVGTAVAWYQQKPGKAPKLLIYWASSLHSGVPSRFSGSGSGTDFTLTISSLQPEDFATYFCQQYSNYPLTFGGGTKVEIKR
notes: as for B1

For the experiment, the target named is T1, L1 cell adhesion molecule (L1CAM) on the surface of HeLa cells (human, UniProt P32004 20-1257).
T1 construct: whole, on cells; Endogenous L1CAM of HeLa cells ("HeLa cells that highly express human L1CAM"); also called CD171; human L1CAM
T1 sequence (P32004 20-1257): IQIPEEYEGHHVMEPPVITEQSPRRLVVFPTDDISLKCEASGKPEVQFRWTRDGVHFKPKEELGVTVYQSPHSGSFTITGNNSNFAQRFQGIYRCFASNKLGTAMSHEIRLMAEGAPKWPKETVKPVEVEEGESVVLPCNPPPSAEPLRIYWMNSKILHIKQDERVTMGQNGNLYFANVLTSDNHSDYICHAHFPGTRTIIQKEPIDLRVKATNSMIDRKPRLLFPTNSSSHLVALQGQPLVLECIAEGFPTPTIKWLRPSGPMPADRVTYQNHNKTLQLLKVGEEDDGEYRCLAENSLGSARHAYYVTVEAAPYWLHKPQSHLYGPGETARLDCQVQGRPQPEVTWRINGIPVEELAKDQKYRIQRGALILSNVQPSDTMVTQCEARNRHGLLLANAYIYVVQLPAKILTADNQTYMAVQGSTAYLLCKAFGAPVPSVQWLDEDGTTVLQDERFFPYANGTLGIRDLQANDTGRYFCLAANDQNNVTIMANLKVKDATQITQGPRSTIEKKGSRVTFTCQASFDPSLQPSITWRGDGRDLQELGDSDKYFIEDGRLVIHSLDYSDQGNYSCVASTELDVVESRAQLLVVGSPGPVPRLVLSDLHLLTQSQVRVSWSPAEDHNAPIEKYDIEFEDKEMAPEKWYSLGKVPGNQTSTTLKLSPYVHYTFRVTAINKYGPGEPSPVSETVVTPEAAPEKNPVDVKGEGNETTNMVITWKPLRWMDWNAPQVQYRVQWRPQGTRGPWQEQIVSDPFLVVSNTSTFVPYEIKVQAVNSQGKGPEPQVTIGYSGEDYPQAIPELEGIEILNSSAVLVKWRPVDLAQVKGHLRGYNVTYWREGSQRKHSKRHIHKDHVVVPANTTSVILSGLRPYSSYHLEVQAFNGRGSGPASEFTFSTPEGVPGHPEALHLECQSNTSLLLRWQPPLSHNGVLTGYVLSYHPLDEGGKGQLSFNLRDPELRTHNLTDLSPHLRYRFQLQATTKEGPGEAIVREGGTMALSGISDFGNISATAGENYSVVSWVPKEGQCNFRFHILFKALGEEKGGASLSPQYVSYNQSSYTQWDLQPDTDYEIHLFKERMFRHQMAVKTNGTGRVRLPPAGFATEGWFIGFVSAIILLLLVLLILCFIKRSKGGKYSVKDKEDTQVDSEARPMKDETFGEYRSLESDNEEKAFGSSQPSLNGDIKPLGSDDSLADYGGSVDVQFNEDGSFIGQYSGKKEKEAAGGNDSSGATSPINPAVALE
Briefly: flow cytometry on HeLa cells, MFI dose-response. As for the experimental part:
Humanized anti-L1CAM antibodies (Human IgG1-Kappa) are diluted in complete medium, in a four-fold serial dilution, with 7 concentration gradient points.
HeLa cells are cultured in DMEM complete medium (Corning, 10-013-CVR) containing 10% FBS (Gibco, 10099-141) and 100 U/mL penicillin-streptomycin mixture (Thermofisher, 15140122). When the cell coverage in the culture container reaches 80-90%, TrypLE (Thermofisher, 12604-013) is used to digest the HeLa cells from the culture container, and they are seeded in a 96-well plate (AXYGEN, P-96-450V-C) at a density of 2.2×10⁶ cells/ml, with 100,000 cells (45 μL complete medium) per well. Then, 5 μL of the antibody dilution is added to each well, mixed gently, and the 96-well plate is incubated at 4° C. for 1 hour. Then, 150 μL of PBS (Corning, 21-040-CVC) containing 2% FBS is added to each well, centrifuged at 1400 rpm for 4 minutes, the supernatant is removed, and washed once again. Then, 50 μL of Alexa Fluor 647-labeled goat anti-human fluorescent secondary antibody (Jacksonimmuno, 109-605-088) diluted at 1:800 is added to each well, and the 96-well plate is incubated at 4° C. for 0.5 hours. The cells are washed twice with PBS solution containing 2% FBS, then resuspended in 120 μL of PBS, and the fluorescent signal on the cell surface is detected using a flow cytometer (BD FACS Celesta), obtaining and the median fluorescence intensity (MFI). A dose-response curve is generated, and the half-maximal effective concentration (EC50) is calculated using non-linear regression with GraphPad software.
Usually EC50 stands for the concentration at which the effect is half-maximal. Read a high EC50 as lower potency in that assay. B1: the EC50 was found to be 0.404 nM.

Molecule B2 came in with a concentration for a half-maximal effect (EC50) of 1.68 nM.

Molecule B3 returned a 50% effective concentration (EC50) of 0.377 nM.

For B4, the half-maximal effective concentration (EC50) came out at 1.48 nM. Against the preceding molecule, the EC50 is about 3.9-fold higher.

In the case of B5, a half-maximal effect (EC50) was put at 0.738 nM.

Molecule B6 had an EC50 of 1.27 nM.
